Data on one molecule can be found in patent US20190125827A1 (UNIVERSITY OF OTTAWA, published 2019).

The assay concerns the target T1, endogenous Vps11 (HOPS subunit) (rat, UniProt D3ZTB4 2-941).
T1 construct: whole, on cells; Endogenous protein detected in situ with an anti-Vps11 antibody; also called vacuolar protein sorting-associated protein 11 homolog
T1 sequence: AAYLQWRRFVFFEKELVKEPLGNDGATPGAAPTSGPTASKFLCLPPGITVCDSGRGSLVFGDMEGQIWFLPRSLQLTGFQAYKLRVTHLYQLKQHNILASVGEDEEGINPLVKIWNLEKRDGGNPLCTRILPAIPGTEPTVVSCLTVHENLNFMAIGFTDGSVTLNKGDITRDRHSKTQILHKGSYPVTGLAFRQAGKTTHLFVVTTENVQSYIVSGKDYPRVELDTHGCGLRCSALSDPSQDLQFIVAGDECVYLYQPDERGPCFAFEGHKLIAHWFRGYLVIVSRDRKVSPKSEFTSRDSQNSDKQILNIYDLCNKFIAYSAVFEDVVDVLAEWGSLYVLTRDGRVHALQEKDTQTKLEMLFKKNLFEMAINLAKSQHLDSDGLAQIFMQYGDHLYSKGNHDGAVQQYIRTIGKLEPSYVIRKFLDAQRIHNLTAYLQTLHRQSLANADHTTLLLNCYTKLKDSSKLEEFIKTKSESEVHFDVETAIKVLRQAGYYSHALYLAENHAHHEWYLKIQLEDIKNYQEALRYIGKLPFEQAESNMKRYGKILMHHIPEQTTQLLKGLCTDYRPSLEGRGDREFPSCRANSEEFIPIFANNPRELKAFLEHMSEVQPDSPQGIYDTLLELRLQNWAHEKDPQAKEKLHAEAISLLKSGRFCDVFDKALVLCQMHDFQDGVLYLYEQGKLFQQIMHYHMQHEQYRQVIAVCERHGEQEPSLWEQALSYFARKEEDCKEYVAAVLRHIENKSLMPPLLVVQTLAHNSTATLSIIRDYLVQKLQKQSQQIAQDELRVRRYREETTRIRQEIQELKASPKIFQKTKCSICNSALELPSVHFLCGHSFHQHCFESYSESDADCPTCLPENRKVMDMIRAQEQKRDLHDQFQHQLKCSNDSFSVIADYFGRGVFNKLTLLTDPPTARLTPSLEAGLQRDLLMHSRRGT
The experiment in a line: proximity ligation assay (in situ co-IP) in transfected hepatic cells, baseline (OA) and 1 h post-EPA.

Experimental: The A18-C3 cells were cultured in DMEM (Invitrogen) supplemented with fetal bovine serum (20%), penicillin (50 U/mL), streptomycin (50 μg/mL, Invitrogen) and Geneticin/G418 (500 μg/mL, Gibco) at 37° C. in 5% CO₂. Transfection was conducted when cells were 60-70% confluence. Appropriate plasmids were mixed with FuGENE HP extreme reagent (Roche Diagnostic), according to manufacturer's protocol, and incubated for 30 min. […] In silencing experiments, appropriate siRNAs were transfected into cells using the X-treme GENE siRNA regent (Roche Diagnostic).
One h post-EPA treatment, the cells were fixed, permeabilized and incubated with an anti-RFP antibody together with proper anti-Vps11, -Vps39, and -Vps41 antibodies. The proximity ligation was achieved using the Duolink secondary PLA probes (Olink AB) that detects substrate formation between the two antibodies as described previously³⁸.

B1: mCherry-tagged Arl8b^T34N (other)
chain: MLALISRLLDWFRSLFWKEEMELTLVGLQYSGKNTFVNVIASGQFSEDMIPTVGFNMRKVTKGNVTIKIWDIGGQPRFRSMWERYCRGVNAIVYMIDAADREKIEASRNELHNLLDKPQLQGIPVLVLGNKRDLPNALDEKQLIEKMNLSAIQDREICCYSISCKEKDNIDITLQWLIQHSKSRRS
notes: Fusion protein expressed by plasmid transfection inside McA-RH7777 (A18-C3) hepatic cells and detected in situ with an anti-RFP antibody; also called ^mCherryArl8b^T34N; RFP-tagged Arl8b^T34N; not shown: C-terminal mCherry tag and its RDP linker
On to B1, for which the binding result is “no binding”.
